Assay: soluble on expression in E. coli; label from the status in PepcDB or PDB records

Sequence | soluble on expression in E. coli
MSLAEASTVETEFAARVQEFYHDQSDPIQLVVAFKALCAVKALLAAANLEEHGAKSSYFQEEFENWDLETKLWHLVEVLYLYRLAENEEVIAENQYSSISVLQENVLRQNPKLKELLIILGWLQTNSKGVDVPGSLSNTSKWSNTRQALANKDLNVLTTHGHTGETDTKLQNIDPDAPIRQACPVMAEDDLRDSQVFRTIYQLILSGQLQEAIELASSTGNHTLALILLGGTQDFIDPVLDKDFCETTMTDLIVPNKPSGAKHKLLWKQAVFKLSHQLGINKYERLIYDYLSGGDISGGLEVVGDSWENLLIIYLNKICLHVLLNALNSNESTTSIPAPPAESIDQVLNLISKGSNGAAQQSKHPLRIVMGSVMISEIGALISGVLKSLNNNFTTQKVWEEDYLVRVMAHLGLFAHAVGSQVSANDLTQLLTLYVQRLSARGFTDLVPLYLSFIPDDSDAREYYSKFLSSITDPSERTKQLQLVRKLGIDSNGDEERMANVLRRTVERVMADTEAEGHHHHHH | soluble
MSLEVYYPGSVVFPADATLEQKVEMAAKVVPTLQQLAWQQMELTAFLHFGINTFTDSEWGDGKEDPALFNPVELDARQWVRILHEAGFRMVILTAKHHDGFCLWPTATTRHSVASSPWREGKGDVVKEVRAACEEYGMKFGIYLSPWDRNAECYGDSHRYNRFFVSQLTELLTHYGEVHEVWFDGANGEGPNGKRQEYDWETFYDTIRRLQPQAVMAIMGDDVRWVGNERGLGRTTEWSATVLTPGIYSRSKTERNRLGIRENSPDLGSREVLKEAGEIFWYPSEVDVSIRPGWFYHAAEDKKVKSLDKLVDIYFQSVGYNSVLLLNVPPDRRGLIHEADALRLKEWADYLGRAFAHDRVVDSARYAVVQGHAVEEYALESKTHINILMLQEDITKGQRTEAFTVEAWVDGAWQEIGRGTTIGYKRLLRIPAVETDRIRVRIEQEGHHHHHH | not soluble
MGSDKIHHHHHHAQTGASDGSRFGHGEDSIRCLKNISIYTEYVKTNNFKDAYTPWMSVFTEAPKAQVSTYTNGAKILRALIAGEKDAAKQKQYFNELMKVHDQRIQYLDDLNKLVKRDATKGSIIGMKAHDYFTMGGQDMNEAYNMFKEAIELEKENSDYFVLQEFMDAAARKMKSDEAYKEQFIQDYLFASGVADGALKAATKENDKKLLKVAKDNIDAFFINSGVATCDNLQAIYAPKVEQNKTNLDYLKQVISVMQMLNCTEQEAYFAASEAAHAIEPTAETAVGCGYMYYKKGDMDKCIDYFDQAINLEQDPLKKADYAYKTAAILFSKKQLSKAKQYALKSISLDGNNGKPYILIANMYASSPNWSDEAALNKCTYFAVIDKLQKAKSVDPSVAEEANKLIGTYAAHTPKDADLFFLSLKKGDSVTIGGWIGETTTIR | not soluble
GPASQHFLSTSVQGPWERAISPNKVPYYINHETQTTCWDHPKMTELYQSLADLNNVRFSAYRTAMKLRRLQKALCLDLLSLSAACDALDQHNLKQNDQPMDILQIINCLTTIYDRLEQEHNNLVNVPLCVDMCLNWLLNVYDTGRTGRIRVLSFKTGIISLCKAHLEDKYRYLFKQVASSTGFCDQRRLGLLLHDSIQIPRQLGEVASFGGSNIEPSVRSCFQFANNKPEIEAALFLDWMRLEPQSMVWLPVLHRVAAAET | soluble
MTAFRQRPLRLGHRGAPLKAKENTLESFRLALEAGLDGVELDVWPTRDGVFAVRHDPDTPLGPVFQVDYADLKAQEPDLPRLEEVLALKEAFPQAVFNVELKSFPGLGEEAARRLAALLRGREGVWVSSFDPLALLALRKAAPGLPLGFLMAEDHSALLPCLGVEAVHPHHALVTEEAVAGWRKRGLFVVAWTVNEEGEARRLLALGLDGLIGDRPEVLLPLGG | soluble
MITELTNIHLIKGNLQANSKNEVFAELAQMLLENNRISNKEDFLNDIEIRERLSVTSMDGIAYPHSKSKAVTKPAIAVGVKHEGIEYGDEEGIKPTVFFMIASPDNGADHHIYVLQELFGKFSEEFIEDIHNAKNEHQILNISIQS | not soluble
MGSDKIHHHHHHMALALTLREYEFSVLLLEARELPEKVDDPRPLALSYGSRLILQRLDIWKNLTQPAPITTIHISNRGHFGHAVLTPDDAGVPALGYVVNYHDLYHSMGRAIRGSNAVYQTNALVTAIRTDLSLAQVAYQQGSTTRQVRARLLVLADGGKLAEQIDGVRYHTYDYQQTAIVANVKVESPRPGTAFERFTLNGPLALLPSGEGYALVWTMPAAAAEKILKLDDRSFLLHLHEQFGDRMGEFTHVGPRSSFPLILKHASTITGHRAVLIGNAAQALHPVAGQGFNLGLRDAWELASEISRIPSGTPGEPGSTRMLAAYSRRRQSDKRISRLFTDSLVKLFTADLPLVQTCSGMGLAALDNLPPARRLIAHQMIFGTKGWFIG | not soluble
GPGSMKTIRKRMRLSVSGRSSARSGMSSDTRLPAAVLERETKVINYSHSTSRAMAAQLENCVRLIRGYQASLQYCNEEIEGALLSLGVATTHSLISSITSVMEGLDTLSGVCRAMHEGYNEEVRHREDLHTSLTGAYISLKELHEATENELREVVAERDRKVAAFGKAVAYVEAVVAERMLWQEANGYNCAGLPVVEMSFSESCHEALRKFDDTVSEAQGEGHSNAESLLASTDVPQTLAKRWDNVENLRHTNGLPSARVLYVPPKDEVELLRNVLEMGTGDRALMWDVQQRERALQDSLTNIHVFGHSCLKALHSMREELAEFRQWFLTIDRKCEPIVVAMRKLGNGVCGLSSASDKNLPH | not soluble
MAHHHHHHMSMNNPAPSPQAPMAAPLDASATVHPRENLAVSAPPGATGAGHNKRLPEELAEFLHTQPPRMETINERKQLFCTRLYMTPPRVLATEGAERRGETLGASLTATGTTSNDSVVGAPLLRSPPPAVLPAAGAPASLKIAKTVPFSEEEHLAWLCAPASPTESRTSAAVPPEAAASSRGLARTERISHAQSEGVRRHEPDRRAVGATATQQPHLSHGASDAHGNDAPARLQGLVAASMATAPNPATPLALQHGEISYKSSFSVLTSWDALMVAPPLLRTTPRMPSLLTQDVENIGTAAMHLNRSTTVTHACASDDVARIPSTGSRAELLIGTSPATEKGEARQEEARADAVLQQPVFPSSCCTRSPTTVPSRLKYDGHGLSPEDSLHQVEEDSARTFVKHFTNGLVFVDPPWFICPVLLDNCEHPYYMTWLDELEVGSVEEAVAETKAKLLTDA | not soluble
EDKTITTLYVGGLGDTITETDLRNHFYQFGEIRTITVVQRQQCAFIQFATRQAAEVAAEKSFNKLIVNGRRLNVKWGR | soluble
ADKLRAACIRIQKTIRGWLLRKRYLCMQRAAITVQRYVRGYQARCYAKFLRRTKAATT | soluble
MSLRSIPSALQAKLDSGATTLARCWIVTRRDGVVMGFTDHDRDLTIGGVLCRAATGFTASEATSRFDLAVDGGEISGAFSDDSLSEADLAAGRYDAAGVATWLVDWSDVSLRIMIARGTIGEVRREGAAFTAELRGLADALAQDSGRLFTARCGVDLGDGKCRVDLASSAFRRSGTVTAVEGTSIVAVSGMSGLAAGWFTAGRLNWTGGANAGLAIEVKQHRVVAGVVRLSLWRAMAEPIAIGDSFVVTAGCDKSFTTCRDRFANTSNFRGFPQIPGNDFVVSYPLPGSPDNGNGSKALEGHHHHHH | soluble
MASFSILSIFKIGVGPSSSHTIGPMEAGARFCESLKGILEQVVRVQITLHGSLALTGKGHLSDEAVLIGLHGIYANELEVTTKKALLHEALENKVLKLANQHHIPFDYAKDLIFDNKPLTRHQNALILKAFNSKNEVLKEETYYSVGGGFVYTEKELDNLSEEDGNESIAYDFSSAKELLELCQKHQKSIAEIVRLRENALKNHPDATMVKIYHAMLECYDNGANSKERYLPGSLKVTRLAPSIKTRLEKHPTSGKDPLALIDYISLYARAIAEENASGGKVVTAPTNGACAVVPSVLLYAKNHLFENLSQKAINDFLLTSAAIGYLYKKNASLSGAEAGCQAEIGVASSMAAGGLAHLCQATTQQVLIASEIAMEHHLGLTCDPVGGLVQIPCIERNVLGAIKAISASKLALEDEYKPKVSLDEVIATMYATGKDMNEKYKETSLGGLAKTLKC | not soluble
MLRQWWLRSVGSCSTVYRAHSGCSTSAAVKPKRAIPTDGLQLSDFIKESTKKQRQKAIIPSIEDTKEYLNPEDLQGNGRTVCYVTYGCQMNVSDMEIVRSIMTKYGFVESDKKENADIVLLMTCSIRDGAEKKVWNQLKLIRSNSVNKGQIVGVLGCMAERVRHDLLEKRNLVNIVAGPDSYRDLPRLVAVAAGGSNGINVQLSLDETYADVQPIRVDSASKTAFISIMRGCDNMCTYCVVPFTRGRERSRPIESIVEEVQRLRDQGYKQVTLLGQNVNSYRDMTSMDFSMAPSTSQEDRVPGFKTVYKPKSGGLTFTTLLEKVADAAPDIRFRFTSPHPKDFPMQLIELIASRPNLCKQLHLPAQSGDDETLERMERGYTRDLYLRLVDDIRHVLPSVSLTSDFIAGFCGETEQAHQNTLSLIRAVRYSFCFVFPYSMRGKTRAHHRLTDDVPEDVKARRHLDLTTVFREEALKLNQALIGSEQTVLLEGKSKRDASFSHGRIDGGVKAVFDNSKLCLEPGQYAKILITDANSQTLKAQLIGQSSI | not soluble
MYVMTQSGWLEVICGCMFSGKSEELIRRVRLAQFAKQEVKVFKPTIDNRYSEDAVVSHNGNSVIAIPVATPAEMFRYISAATDVVAIDEVQFFSDDIIDVVQTLADGGCRVITAGLDQDFRGEPFGPVPALMAIAESVTKLQAVCTVCGSPASRTQRLINGAPASYDDPVILVGASEAYEPRCRHHHEVPGKPKKRYNRPLAGHTGE | not soluble
MSTPFKMERGVKYRDAAKTSIIPVKNIDPNQDLLKKPEWMKIKLPASSAKIESIKNGMRRHGLHSVCEEASCPNLHECFNHGTATFMILGAICTRRCPFCDVAHGKPLPPDPEEPQKLAETIQDMKLKYVVITSVDRDDLPDRGAGHFSECVKAVRELNPNIKIEILVPDFRGRITQALEKLKDNPPDVFNHNLENVPRLYKEIRPGADYEWSLKLLREFKEIFPNIPTKSGLMVGLGETNEEILQVMQDLRDNGVTMLTLGQYLQPSRHHLPVARYVPPTEFDEFRDKANEMGFEHAACGPFVRSSYHADLQASGGLVKLEHHHHHH | not soluble
MSLLDFGFDESRIYFTVTDRFFNGDKNNDDPHGNNYDKKNPYTYHGGDLKGLTDKISYLKELGINTIWITPIVENTDFNQMFSQGKTQYSCHGYWAKDFEKLDPHLGTMDDLKTLIDTAHDSGIKIMVDVVLNHAGYGMKNKDNSGANNSPTEEDIAKFKGMFRENPGNDFITQESAGLPDFKTEDPEVREKLIEWQTGWIERSKTEKGNTIDYFRVDTVKHVDNTTWKAFKNKLTEINPSFKTIGEYFGADINNDGGQLQNGQMDALLDFGYKGKARDFVNGNIEGTSAYLDDRASKISNTNLMGQFLSSHDEDGFLKTVGDDLGKQMLAASLQITDKGIPVIYYGEELGMSGWNGFEQGDQNRYDMDFERLNDPKYKKVHDHYEKLLNIRKEYSKIFSKGNRKTIAGNNEEGYSVVLRSYNGKEITPMNLSENNEEKNITNGQNLFVVLNTKNEDKDISFKTNFKEGEKVKDLYSGNEYSIGKDGKVTVKVPSKEGHHHHHH | not soluble
MSQYGFVRVPREVEKAIPVVNAPRPRAVVPPPNSETARLVREYAAKELTAPVLNHSLRVFQYSVAIIRDQFPAWDLDQEVLYVTCLLHDIATTDKNMRATKMSFEYYGGILSRELVFNATGGNQDYADAVTEAIIRHQDLTGTGYITTLGLILQIATTLDNVGSNTDLIHIDTVSAINEQFPRLHWLSCFATVVDTENSRKPWGHTSSLGDDFSKKVICNTFGYN | not soluble
MLEKLWPFGRSRVRKAVEEALEKAFQDVGEVLEPLSELSEHEDHYLLRVEVPGLGPENLEVRLEGDQLVIEGEKREEKRAKHLAEIVYGRIYRAYLLPKDAKKEGIEARLAKGVLEVRIPREKRPEEPPVRIPIQES | soluble
